Data from patent US20250019439A1 (Adimab, published 2025).

Key:
[1] = molecular target: T1, CTL-62227; assay: SPR Carterra, yeast anti-ID
T1 construct: also called odronextamab
Experimental: (§1) Kinetic analysis was conducted at 25° C. in an HBSTE running buffer system (Carterra Cat #3630) using a Carterra LSA (Carterra USA, Salt Lake City, UT). The sample compartment was maintained at 20° C. for the duration of each experiment.
(§2) For antibody capture experiments, a goat anti-human Fc antibody (Jackson ImmunoResearch) was covalently coupled to an HC30M sensor chip surface via standard amine coupling (1:1 EDC:NHS) and then blocked with ethanolamine (1.0 M, pH 8.5). Covalent coupling steps were performed in 25 mM MES buffer (Carterra, Cat #3625) plus 0.05% Tween20. The anti-CD3 antibodies (100 nM in running buffer) were flowed over discrete regions of interest on the chip surface for 5 minutes. […] Dissociation of the anti-idiotype antibodies was monitored for 300s. Several blank buffer samples were injected over the entire chip surface at the start of each non-regenerative kinetic cycle. The preceding blank buffer injection was used for blank surface subtraction. At the end of each non-regenerative kinetic cycle, all surfaces were regenerated via two 30s injections of 10 mM glycine, pH 1.7.
(§3) For data processing and fitting, sensorgrams were double reference subtracted with a baseline drift correction of 4 RU. Sensorgrams were y-aligned and baseline corrected, filtered and cropped to include only the association and dissociation steps. Data was fitted to a 1:1 binding model using Carterra Kinetics Data Analysis software version 1.7.1.3055.

[2] = molecular target: T2, CTL-62228; assay: SPR Carterra, yeast anti-ID
T2 construct: also called glofitamab
Experimental: as §1, §2, §3

[3] = molecular target: T3, CTL-62240; assay: SPR Carterra, yeast anti-ID
T3 construct: also called ONO-4685
Experimental: as §1, §2, §3

[4] = molecular target: T4, ADI-50024; assay: SPR Carterra avidity, yeast anti-ID
T4 construct: anti-CD3 antibody made in CHO cells, captured by anti-human Fc
Experimental: as §1, §2, §3

[5] = molecular target: T5, ADI-70326; assay: SPR Carterra avidity, yeast anti-ID
T5 construct: anti-CD3 antibody made in CHO cells, captured by anti-human Fc
Experimental: as §1, §2, §3

[6] = molecular target: T6, ADI-70327; assay: SPR Carterra avidity, yeast anti-ID
T6 construct: anti-CD3 antibody made in CHO cells, captured by anti-human Fc
Experimental: as §1, §2, §3

[7] = molecular target: T7, ADI-70330; assay: SPR Carterra avidity, yeast anti-ID
T7 construct: anti-CD3 antibody made in CHO cells, captured by anti-human Fc
Experimental: as §1, §2, §3

[8] = molecular target: T8, ADI-26906 IgG; assay: SPR Carterra avidity, yeast anti-ID
T8 construct: anti-CD3 IgG
Experimental: as §1, §2, §3

[9] = molecular target: T9, ADI-67450; assay: SPR Carterra avidity, yeast anti-ID
T9 construct: anti-CD3 antibody made in CHO cells, captured by anti-human Fc
Experimental: as §1, §2, §3

[10] = molecular target: T10, ADI-67445; assay: SPR Carterra avidity, yeast anti-ID
T10 construct: anti-CD3 antibody made in CHO cells, captured by anti-human Fc
Experimental: as §1, §2, §3

[11] = molecular target: T11, ADI-26909; assay: SPR Carterra avidity, yeast anti-ID
T11 construct: anti-CD3 antibody made in CHO cells, captured by anti-human Fc
Experimental: as §1, §2, §3

[12] = molecular target: T12, ADI-26913 IgG; assay: SPR Carterra avidity, yeast anti-ID
T12 construct: anti-CD3 IgG
Experimental: as §1, §2, §3

[13] = molecular target: T13, ADI-26919; assay: SPR Carterra avidity, yeast anti-ID
T13 construct: anti-CD3 antibody made in CHO cells, captured by anti-human Fc
Experimental: as §1, §2, §3

[14] = molecular target: T14, ADI-26921 IgG; assay: SPR Carterra avidity, yeast anti-ID
T14 construct: anti-CD3 IgG
Experimental: as §1, §2, §3

[15] = molecular target: T15, ADI-26916 IgG; assay: SPR Carterra avidity, yeast anti-ID
T15 construct: anti-CD3 IgG
Experimental: as §1, §2, §3

[16] = molecular target: T16, ADI-26943; assay: SPR Carterra avidity, yeast anti-ID
T16 construct: anti-CD3 antibody made in CHO cells, captured by anti-human Fc
Experimental: as §1, §2, §3

[17] = molecular target: T17, ADI-48576; assay: SPR Carterra avidity, yeast anti-ID
T17 construct: pH-dependent anti-CD3 antibody made in CHO cells
Experimental: as §1, §2, §3

[18] = molecular target: T18, ADI-48587; assay: SPR Carterra avidity, yeast anti-ID
T18 construct: pH-dependent anti-CD3 antibody made in CHO cells
Experimental: as §1, §2, §3

[19] = molecular target: T19, ADI-48592; assay: SPR Carterra avidity, yeast anti-ID
T19 construct: pH-dependent anti-CD3 antibody made in CHO cells
Experimental: as §1, §2, §3

[20] = molecular target: T20, ADI-48650; assay: SPR Carterra avidity, yeast anti-ID
T20 construct: pH-dependent anti-CD3 antibody made in CHO cells
Experimental: as §1, §2, §3

[21] = molecular target: T21, ADI-74965; assay: SPR Carterra avidity, yeast anti-ID
T21 construct: pH-dependent anti-CD3 antibody made in CHO cells
Experimental: as §1, §2, §3

[22] = molecular target: T22, ADI-74966; assay: SPR Carterra avidity, yeast anti-ID
T22 construct: pH-dependent anti-CD3 antibody made in CHO cells
Experimental: as §1, §2, §3

[23] = molecular target: T23, ADI-74967; assay: SPR Carterra avidity, yeast anti-ID
T23 construct: pH-dependent anti-CD3 antibody made in CHO cells
Experimental: as §1, §2, §3

[24] = molecular target: T24, ADI-74968; assay: SPR Carterra avidity, yeast anti-ID
T24 construct: pH-dependent anti-CD3 antibody made in CHO cells
Experimental: as §1, §2, §3

[25] = molecular target: T25, ADI-76357; assay: SPR Carterra avidity, yeast anti-ID
T25 construct: anti-CD3 antibody made in CHO cells, captured by anti-human Fc
Experimental: as §1, §2, §3

[26] = molecular target: T26, ADI-76358; assay: SPR Carterra avidity, yeast anti-ID
T26 construct: anti-CD3 antibody made in CHO cells, captured by anti-human Fc
Experimental: as §1, §2, §3

[27] = molecular target: T27, ADI-76359; assay: SPR Carterra avidity, yeast anti-ID
T27 construct: anti-CD3 antibody made in CHO cells, captured by anti-human Fc
Experimental: as §1, §2, §3

[28] = molecular target: T28, ADI-76360; assay: SPR Carterra avidity, yeast anti-ID
T28 construct: anti-CD3 antibody made in CHO cells, captured by anti-human Fc
Experimental: as §1, §2, §3

[29] = molecular target: T29, ADI-76361; assay: SPR Carterra avidity, yeast anti-ID
T29 construct: anti-CD3 antibody made in CHO cells, captured by anti-human Fc
Experimental: as §1, §2, §3

[30] = molecular target: T30, ADI-76362; assay: SPR Carterra avidity, yeast anti-ID
T30 construct: anti-CD3 antibody made in CHO cells, captured by anti-human Fc
Experimental: as §1, §2, §3

[31] = molecular target: T31, CTL-62223; assay: SPR Carterra avidity, yeast anti-ID
T31 construct: also called mosunetuzumab
Experimental: as §1, §2, §3

[32] = molecular target: T32, ADI-67447; assay: SPR Carterra avidity, yeast anti-ID, *koff limit
T32 construct: anti-CD3 antibody made in CHO cells, captured by anti-human Fc
Experimental: as §1, §2, §3

[33] = molecular target: T33, ADI-26920 IgG; assay: SPR Carterra avidity, yeast anti-ID, *koff limit
T33 construct: anti-CD3 IgG
Experimental: as §1, §2, §3

[34] = molecular target: T34, ADI-26924; assay: SPR Carterra avidity, yeast anti-ID, *koff limit
T34 construct: anti-CD3 antibody made in CHO cells, captured by anti-human Fc
Experimental: as §1, §2, §3

T17 sequence (VH, as listed by the source, chain 1 of 2): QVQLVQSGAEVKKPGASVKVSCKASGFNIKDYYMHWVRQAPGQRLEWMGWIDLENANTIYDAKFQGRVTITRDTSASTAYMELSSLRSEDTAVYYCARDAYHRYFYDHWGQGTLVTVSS
T17 sequence (VL, as listed by the source, chain 2 of 2): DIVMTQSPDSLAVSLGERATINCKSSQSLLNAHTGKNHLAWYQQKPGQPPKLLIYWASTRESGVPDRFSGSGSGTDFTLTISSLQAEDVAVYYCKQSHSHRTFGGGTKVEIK
T12 sequence (VH, as listed by the source limits assumed, chain 1 of 2): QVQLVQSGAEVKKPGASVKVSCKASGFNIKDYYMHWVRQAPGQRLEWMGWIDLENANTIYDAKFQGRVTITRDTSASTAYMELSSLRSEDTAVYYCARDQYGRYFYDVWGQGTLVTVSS
T12 sequence (VL, as listed by the source limits assumed, chain 2 of 2): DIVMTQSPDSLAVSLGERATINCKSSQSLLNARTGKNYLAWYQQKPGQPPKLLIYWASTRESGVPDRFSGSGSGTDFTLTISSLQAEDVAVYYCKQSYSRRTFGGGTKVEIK
T29 sequence (VH, as listed by the source, chain 1 of 2): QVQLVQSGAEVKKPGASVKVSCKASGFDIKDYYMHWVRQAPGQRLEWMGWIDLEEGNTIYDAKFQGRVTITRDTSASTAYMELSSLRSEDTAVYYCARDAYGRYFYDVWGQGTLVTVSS
T29 sequence (VL, as listed by the source, chain 2 of 2): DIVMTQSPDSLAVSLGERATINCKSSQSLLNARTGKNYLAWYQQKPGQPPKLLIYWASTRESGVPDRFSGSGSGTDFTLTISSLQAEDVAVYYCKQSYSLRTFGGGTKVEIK
T33 sequence (VH, as listed by the source limits assumed, chain 1 of 2): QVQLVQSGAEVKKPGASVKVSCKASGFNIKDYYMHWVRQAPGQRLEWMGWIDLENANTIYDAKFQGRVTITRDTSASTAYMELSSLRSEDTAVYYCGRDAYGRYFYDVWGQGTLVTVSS
T6 sequence (VH, as listed by the source limits assumed, chain 1 of 2): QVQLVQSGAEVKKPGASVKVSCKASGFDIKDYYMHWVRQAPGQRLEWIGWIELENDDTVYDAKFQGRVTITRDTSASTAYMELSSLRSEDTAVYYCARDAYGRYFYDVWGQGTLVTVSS
T6 sequence (VL, as listed by the source limits assumed, chain 2 of 2): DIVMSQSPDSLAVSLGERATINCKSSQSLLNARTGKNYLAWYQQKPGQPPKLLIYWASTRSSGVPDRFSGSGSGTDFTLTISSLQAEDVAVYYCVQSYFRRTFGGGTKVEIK
T16 sequence (VH, as listed by the source, chain 1 of 2): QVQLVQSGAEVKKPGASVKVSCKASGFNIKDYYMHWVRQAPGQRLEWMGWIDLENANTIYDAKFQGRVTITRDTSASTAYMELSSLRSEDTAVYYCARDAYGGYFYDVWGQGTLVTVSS
T16 sequence (VL, as listed by the source, chain 2 of 2): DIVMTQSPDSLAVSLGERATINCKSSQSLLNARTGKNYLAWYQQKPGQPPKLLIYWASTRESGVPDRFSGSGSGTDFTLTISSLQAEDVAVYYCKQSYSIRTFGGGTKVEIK
T9 sequence (VH, as listed by the source limits assumed, chain 1 of 2): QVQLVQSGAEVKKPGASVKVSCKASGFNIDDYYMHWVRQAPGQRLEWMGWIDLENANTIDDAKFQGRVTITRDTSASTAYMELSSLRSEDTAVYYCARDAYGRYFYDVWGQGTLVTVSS
T27 sequence (VH, as listed by the source, chain 1 of 2): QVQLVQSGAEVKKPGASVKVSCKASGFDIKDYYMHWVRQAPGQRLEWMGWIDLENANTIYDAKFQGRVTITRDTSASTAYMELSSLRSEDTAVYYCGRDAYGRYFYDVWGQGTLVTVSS
T20 sequence (VH, as listed by the source, chain 1 of 2): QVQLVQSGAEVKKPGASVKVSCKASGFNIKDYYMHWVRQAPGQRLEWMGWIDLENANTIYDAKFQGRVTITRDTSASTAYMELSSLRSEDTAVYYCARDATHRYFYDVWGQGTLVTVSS
T20 sequence (VL, as listed by the source, chain 2 of 2): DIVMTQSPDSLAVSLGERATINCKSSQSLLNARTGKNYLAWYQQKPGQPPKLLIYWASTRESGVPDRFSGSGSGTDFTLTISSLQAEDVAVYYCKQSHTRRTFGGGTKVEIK
T3 sequence (VH, as listed by the source, chain 1 of 2): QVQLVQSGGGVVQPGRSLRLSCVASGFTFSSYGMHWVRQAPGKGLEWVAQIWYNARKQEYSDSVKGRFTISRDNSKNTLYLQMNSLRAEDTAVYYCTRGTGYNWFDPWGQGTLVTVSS
T3 sequence (VL, as listed by the source, chain 2 of 2): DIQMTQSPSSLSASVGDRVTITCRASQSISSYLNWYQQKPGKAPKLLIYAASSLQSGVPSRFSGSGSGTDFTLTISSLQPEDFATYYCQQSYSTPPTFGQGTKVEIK
T25 sequence (VH, as listed by the source, chain 1 of 2): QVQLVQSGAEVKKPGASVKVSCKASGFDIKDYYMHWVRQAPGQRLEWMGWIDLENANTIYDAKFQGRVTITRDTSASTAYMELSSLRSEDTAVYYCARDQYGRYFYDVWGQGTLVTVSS
T26 sequence (VH, as listed by the source, chain 1 of 2): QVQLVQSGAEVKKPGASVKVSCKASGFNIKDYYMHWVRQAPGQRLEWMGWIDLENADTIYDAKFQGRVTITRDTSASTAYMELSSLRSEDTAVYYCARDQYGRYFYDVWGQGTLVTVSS
T11 sequence (VH, as listed by the source limits assumed, chain 1 of 2): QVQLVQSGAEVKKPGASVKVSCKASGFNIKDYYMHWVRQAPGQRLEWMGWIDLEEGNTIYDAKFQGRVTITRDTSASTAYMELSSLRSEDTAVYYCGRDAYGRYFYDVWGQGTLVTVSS
T23 sequence (VH, as listed by the source, chain 1 of 2): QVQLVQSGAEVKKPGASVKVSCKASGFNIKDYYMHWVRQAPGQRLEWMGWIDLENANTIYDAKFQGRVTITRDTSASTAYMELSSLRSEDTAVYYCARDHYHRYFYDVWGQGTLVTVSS
T23 sequence (VL, as listed by the source, chain 2 of 2): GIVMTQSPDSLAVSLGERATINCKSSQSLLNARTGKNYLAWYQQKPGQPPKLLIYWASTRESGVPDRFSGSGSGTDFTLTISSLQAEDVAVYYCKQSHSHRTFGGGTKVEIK
T18 sequence (VL, as listed by the source, chain 2 of 2): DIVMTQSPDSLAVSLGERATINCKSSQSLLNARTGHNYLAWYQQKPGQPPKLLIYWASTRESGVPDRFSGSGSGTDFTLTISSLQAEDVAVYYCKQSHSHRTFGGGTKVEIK
T22 sequence (VL, as listed by the source, chain 2 of 2): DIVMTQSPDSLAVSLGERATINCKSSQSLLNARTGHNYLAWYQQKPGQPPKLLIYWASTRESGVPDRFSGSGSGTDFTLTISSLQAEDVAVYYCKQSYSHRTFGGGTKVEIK
T32 sequence (VH, as listed by the source limits assumed, chain 1 of 2): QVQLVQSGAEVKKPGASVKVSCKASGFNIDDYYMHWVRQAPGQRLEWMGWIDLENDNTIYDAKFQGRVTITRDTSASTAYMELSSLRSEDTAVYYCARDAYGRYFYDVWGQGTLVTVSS
T21 sequence (VH, as listed by the source, chain 1 of 2): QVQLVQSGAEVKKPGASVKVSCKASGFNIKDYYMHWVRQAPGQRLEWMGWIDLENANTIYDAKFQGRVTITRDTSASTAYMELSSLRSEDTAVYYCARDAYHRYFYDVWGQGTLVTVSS

B1: ADI-34146 (antibody, V domains shown)
VH: EVQLLESGGGLVQPGGSLRLSCAASGFTFSSYAMSWVRQAPGKGLEWVSTISGSGGSTYYADSVKGRFTISRDNSKNTLYLQMNSLRAEDTAVYYCARLGGRRGSGSSYYYYYGMDVWGQGTTVTVSS
VL: not shown
notes: anti-ID IgG
B1: no binding (tested: up to 200 nM) [1]; no binding (tested: up to 200 nM) [2]; no binding (tested: up to 200 nM) [3]. The Kd [4] was 1.1 nM, the Kd [5] was 3.9 nM and the Kd [6] was 1.7 nM. The Kd [7] was 1.2 nM, the Kd [8] was 0.63 nM and the Kd [9] was 1.8 nM. The Kd [10] was 0.93 nM, the Kd [11] was 0.64 nM and the Kd [12] was 0.55 nM. For the same binder, the Kd [13] was 0.35 nM, the Kd [14] was 0.24 nM and the Kd [15] was 1.8 nM. It also gave a Kd [16] of 0.87 nM, a Kd [17] of 12 nM and a Kd [18] of 0.79 nM. For the same binder, the Kd [19] was 16 nM, the Kd [20] was 3.3 nM and the Kd [21] was 0.75 nM. The Kd [22] was 0.86 nM, the Kd [23] was 0.5 nM and the Kd [24] was 0.41 nM. It also gave a Kd [25] of 0.54 nM, a Kd [26] of 2.9 nM and a Kd [27] of 0.39 nM. The Kd [28] was 0.57 nM, the Kd [29] was 0.24 nM and the Kd [30] was 1.4 nM. For the same binder, the Kd [31] was 4.5 nM, the Kd [32] was 0.35 nM and the Kd [33] was 0.29 nM. The Kd [34] was 0.25 nM.
